Source: article PMC2425476 (Nucleic Acids Research, 2008)
Where two headings read alike, the source gives them in different places.

B1: 30 nt/55 nt p/tDNA (mixed)
DNA 1: TGAGCGTTTTTCCTGTTGCAATGGCTGGCGGTAATATTGTTCTGGATATTACCAG
DNA 2: CTGGTAATATCCAGAACAATATTACCGCCA
modifications: 5' amino linker on template (S2)
B2: γ subunit of the E. coli clamp loader (γ complex) (natural protein)
chain: MSYQVLARKWRPQTFADVVGQEHVLTALANGLSLGRIHHAYLFSGTRGVGKTSIARLLAKGLNCETGITATPCGVCDNCREIEQGRFVDLIEIDAASRTKVEDTRDLLDNVQYAPARGRFKVYLIDEVHMLSRHSFNALLKTLEEPPEHVKFLLATTDPQKLPVTILSRCLQFHLKALDVEQIRHQLEHILNEEHIAHEPRALQLLARAAEGSLRDALSLTDQAIASGDGQVSTQAVSAMLGTLDDDQALSLVEAMVEANGERVMALINEAAARGIEWEALLVEMLGLLHRIAMVQLSPAALGNDMAAIELRMRELARTIPPTDIQLYYQTLLIGRKELPYAPDRRMGVEMTLLRALAFHPRMPLPEPEVPRQSFAPVAPTAVMTPTQVPPQPQSAPQQAPTVPLPETTSQVLAARQQLQRVQGATKAKKE

Tests used:
δW279Y-γ complex;β clamp [1] = target: T1, δW279Y-γ complex;β clamp (Escherichia coli;Escherichia coli, UniProt P06710-2;P28630;P28631;P28905;P28632;P0A988 1-431;1-343;1-334;1-147;1-137;1-366, W279Y|); assay: fluorescence anisotropy
δW279A-γ complex;β clamp = δW279A-γ complex;β clamp (Escherichia coli;Escherichia coli, UniProt P06710-2;P28630;P28631;P28905;P28632;P0A988 1-431;1-343;1-334;1-147;1-137;1-366, W279A|); assay: fluorescence anisotropy
[2] = target: γ complex (clamp loader, γ3δδ'χψ), wild type;β clamp (Escherichia coli;Escherichia coli, UniProt P06710-2;P28630;P28631;P28905;P28632;P0A988 1-431;1-343;1-334;1-147;1-137;1-366, |); assay: fluorescence anisotropy
δW279Y-γ complex;β clamp [3] = target: T1, δW279Y-γ complex;β clamp; assay: fluorescence anisotropy; remark: listed apart in the source
[4] = target: δW279A/R277A-γ complex;β clamp (Escherichia coli;Escherichia coli, UniProt P06710-2;P28630;P28631;P28905;P28632;P0A988 1-431;1-343;1-334;1-147;1-137;1-366, R277A;W279A|); assay: fluorescence anisotropy
[5] = target: δW279A/R283A-γ complex;β clamp (Escherichia coli;Escherichia coli, UniProt P06710-2;P28630;P28631;P28905;P28632;P0A988 1-431;1-343;1-334;1-147;1-137;1-366, W279A;R283A|); assay: fluorescence anisotropy
[6] = target: the molecule itself

| Binder | Kd (δW279Y-γ complex;β clamp [1]) | Kd (δW279A-γ complex;β clamp) | Kd [2] | Kd (δW279Y-γ complex;β clamp [3]) | binding result [4] | binding result [5] | binding result [6] |
| --- | --- | --- | --- | --- | --- | --- | --- |
| B1 | ~800 nM | 590 ± 80 nM | 60 ± 10 nM | 159 ± 15 nM | no binding | no binding |  |
| B2 |  |  |  |  |  |  | binds |
